From the supplement of paper PMC10724198
± gives the standard deviation of the averaged measurements.

Columns and labels:
Saccharomyces cerevisiae [1] = test: protein stability index of tFT-peptide fusion (C-terminal peptide) (PSI (0-1 scale)); higher = more stable (slower turnover); settings: genetic background: wild type; temperature: 30 C
Saccharomyces cerevisiae [2] = test: as above
Procedure: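 MPS profiling in S. cerevisiae of the tFT-X12 degron library: putative degron peptides plus stable controls, 12 aa, fused to the C-terminus of a sfGFP-mCherry timer. Cells are FACS-sorted into 8 mCherry/sfGFP bins and deep-sequenced. PSI runs from 0 (unstable) to 1 (stable). Backgrounds are wild type, das1Δ and doa10Δ at 30 °C, and wild type, das1Δ, cdc34-1 and cdc53-1 at 37 °C; 2-3 technical replicates each.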

[3] = genetic background: cdc34-1, temperature: 37 C
[4] = genetic background: cdc53-1, temperature: 37 C
[5] = genetic background: das1 deletion, temperature: 30 C
[6] = genetic background: das1 deletion, temperature: 37 C
[7] = genetic background: doa10 deletion, temperature: 30 C
[8] = genetic background: wild type, temperature: 30 C
[9] = genetic background: wild type, temperature: 37 C
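Note: PSI is a weighted mean of sequencing reads over stability bins, variants kept only with over 10 reads, mCherry proximal and sfGFP distal, peptide attached via GGGS linker.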

Sequence | protein stability index (Saccharomyces cerevisiae [1]) | protein stability index (Saccharomyces cerevisiae [2]; [3]) | protein stability index (Saccharomyces cerevisiae [2]; [4]) | protein stability index (Saccharomyces cerevisiae [2]; [5]) | protein stability index (Saccharomyces cerevisiae [2]; [6]) | protein stability index (Saccharomyces cerevisiae [2]; [7]) | protein stability index (Saccharomyces cerevisiae [2]; [8]) | protein stability index (Saccharomyces cerevisiae [2]; [9])
KHTGTGNAPNCD | 0.754 ± 0.056 | 0.686 ± 0.061 | 0.729 ± 0.024 | 0.649 ± 0.013 | 0.719 ± 0.011 | 0.647 ± 0.025 | 0.635 ± 0.011 | 0.712 ± 0.012
KIKKLKNRRKLV | 0.166 ± 0.088 | 0.673 ± 0.0046 | 0.7717 ± 0.0033 | 0.625 ± 0.0071 | 0.7297 ± 0.003 | 0.0918 ± 0.019 | 0.0978 ± 0.0038 | 0.196 ± 0.032
KKKKQKKNNNKR | 0.536 ± 0.074 | 0.699 ± 0.094 | 0.687 ± 0.15 | 0.676 ± 0.083 | 0.755 ± 0.034 | 0.668 ± 0.011 | 0.6 ± 0.027 | 0.698 ± 0.079
KLKDLTRIKIFR | 0.722 ± 0.019 | 0.681 ± 0.0063 | 0.714 ± 0.033 | 0.666 ± 0.031 | 0.6989 ± 0.0069 | 0.6428 ± 0.002 | 0.6737 ± 0.0056 | 0.701 ± 0.011
KRARVIWKLVVV | 0.445 ± 0.0046 | 0.59 ± 0.033 | 0.528 ± 0.008 | 0.408 ± 0.024 | 0.583 ± 0.006 | 0.23 ± 0.01 | 0.287 ± 0.015 | 0.4876 ± 0.0039
KRMVEKNKKKIN | 0.31 ± 0.036 | 0.57 ± 0.063 | 0.747 ± 0.087 | 0.613 ± 0.029 | 0.729 ± 0.024 | 0.153 ± 0.024 | 0.201 ± 0.037 | 0.368 ± 0.012
KSSIGVWTLLIR | 0.494 ± 0.016 | 0.282 ± 0.012 | 0.3 ± 0.026 | 0.337 ± 0.026 | 0.454 ± 0.022 | 0.564 ± 0.02 | 0.334 ± 0.035 | 0.423 ± 0.022
KSTLVRILVFHV | 0.384 ± 0.071 | 0.559 ± 0.047 | 0.6474 ± 0.0042 | 0.458 ± 0.028 | 0.646 ± 0.044 | 0.2825 ± 0.0003 | 0.303 ± 0.0068 | 0.522 ± 0.0089
KYKANLGNLKVH | 0.135 ± 0.056 | 0.596 ± 0.067 | 0.7161 ± 0.0013 | 0.632 ± 0.019 | 0.725 ± 0.029 | 0.0824 ± 0.011 | 0.0914 ± 0.05 | 0.101 ± 0.0031
LAPPFPVVLTPA | 0.334 ± 0.015 | 0.294 ± 0.043 | 0.32381 ± 2.9e-05 | 0.263 ± 0.036 | 0.4137 ± 0.00012 | 0.219 ± 0.0087 | 0.267 ± 0.035 | 0.3816 ± 0.0013
LCGGEWVVWVKG | 0.342 ± 0.0052 | 0.645 ± 0.023 | 0.7321 ± 0.0055 | 0.557 ± 0.02 | 0.721 ± 0.012 | 0.211 ± 0.0085 | 0.234 ± 0.026 | 0.477 ± 0.029
LCIFFWFSSFFL | 0.493 ± 0.015 | 0.471 ± 0.028 | 0.561 ± 0.018 | 0.4 ± 0.021 | 0.5337 ± 0.0052 | 0.401 ± 0.0067 | 0.389 ± 0.019 | 0.505 ± 0.012
LCLICLFLLKVL | 0.337 ± 0.022 | 0.477 ± 0.049 | 0.548 ± 0.048 | 0.395 ± 0.03 | 0.586 ± 0.0076 | 0.18 ± 0.018 | 0.201 ± 0.032 | 0.299 ± 0.017
LCRCPVGVFVLL | 0.362 ± 0.012 | 0.516 ± 0.036 | 0.549 ± 0.031 | 0.39 ± 0.038 | 0.5395 ± 0.0021 | 0.356 ± 0.033 | 0.303 ± 0.035 | 0.469 ± 0.017
LCVVFCIRTYRV | 0.335 ± 0.053 | 0.249 ± 0.027 | 0.437 ± 0.079 | 0.259 ± 0.038 | 0.476 ± 0.044 | 0.247 ± 0.031 | 0.251 ± 0.042 | 0.471 ± 0.027
LCYVLLWLLCRS | 0.448 ± 0.027 | 0.45 ± 0.017 | 0.516 ± 0.049 | 0.349 ± 0.024 | 0.512 ± 0.0074 | 0.33 ± 0.0069 | 0.353 ± 0.026 | 0.501 ± 0.033
LDLPFESGIACF | 0.361 ± 0.0063 | 0.32 ± 0.035 | 0.297 ± 0.0081 | 0.259 ± 0.032 | 0.436 ± 0.027 | 0.209 ± 0.02 | 0.263 ± 0.029 | 0.397 ± 0.015
LEGLLIRVYITF | 0.288 ± 0.014 | 0.105 ± 0.034 | 0.234 ± 0.021 | 0.178 ± 0.019 | 0.3361 ± 0.00094 | 0.151 ± 0.017 | 0.173 ± 0.02 | 0.305 ± 0.0093
LFFFLFSLLIFF | 0.301 ± 0.036 | 0.248 ± 0.019 | 0.25 ± 0.0039 | 0.349 ± 0.044 | 0.362 ± 0.0094 | 0.377 ± 0.014 | 0.259 ± 0.047 | 0.352 ± 0.011
LFFFRLFVFWVF | 0.203 ± 0.0063 | 0.195 ± 0.034 | 0.173 ± 0.037 | 0.238 ± 0.021 | 0.369 ± 0.01 | 0.173 ± 0.014 | 0.157 ± 0.023 | 0.251 ± 0.0066
LFFFSFSFLFFL | 0.278 ± 0.035 | 0.291 ± 0.07 | 0.29 ± 0.0037 | 0.302 ± 0.015 | 0.411 ± 0.00085 | 0.317 ± 0.024 | 0.245 ± 0.014 | 0.3202 ± 0.0027
LFFFVFFVLFSV | 0.259 ± 0.075 | 0.2271 ± 0.00037 | 0.204 ± 0.0057 | 0.218 ± 0.013 | 0.3319 ± 0.0017 | 0.304 ± 0.013 | 0.211 ± 0.023 | 0.303 ± 0.016
LFFRLLCAFLFL | 0.529 ± 0.046 | 0.532 ± 0.041 | 0.452 ± 0.012 | 0.499 ± 0.047 | 0.584 ± 0.017 | 0.578 ± 0.04 | 0.501 ± 0.012 | 0.5353 ± 0.0031
LFFVFCLFFIYF | 0.247 ± 0.004 | 0.167 ± 0.031 | 0.102 ± 0.0085 | 0.235 ± 0.024 | 0.301 ± 0.0074 | 0.322 ± 0.0061 | 0.252 ± 0.017 | 0.264 ± 0.011
LFHSIPRLLLLK | 0.367 ± 0.053 | 0.0746 ± 0.013 | 0.0485 ± 0.0081 | 0.23 ± 0.087 | 0.27 ± 0.04 | 0.627 ± 0.0064 | 0.241 ± 0.033 | 0.218 ± 0.041
LFKFCLGIPLFL | 0.479 ± 0.038 | 0.51 ± 0.026 | 0.522 ± 0.029 | 0.412 ± 0.037 | 0.576 ± 0.006 | 0.4179 ± 0.004 | 0.402 ± 0.029 | 0.559 ± 0.014
LFLSAFFYLLVW | 0.284 ± 0.039 | 0.199 ± 0.0028 | 0.2233 ± 0.0014 | 0.245 ± 0.029 | 0.341 ± 0.0047 | 0.277 ± 0.0047 | 0.238 ± 0.014 | 0.3077 ± 0.002
LFLVLFCVVGFV | 0.282 ± 0.0047 | 0.234 ± 0.036 | 0.311 ± 0.031 | 0.226 ± 0.027 | 0.377 ± 0.0076 | 0.222 ± 0.0075 | 0.219 ± 0.02 | 0.337 ± 0.011
LFSFFVFFFLLD | 0.435 ± 0.034 | 0.358 ± 0.086 | 0.446 ± 0.0062 | 0.364 ± 0.044 | 0.522 ± 0.031 | 0.375 ± 0.005 | 0.37 ± 0.031 | 0.476 ± 0.02
LFTRWSILFKLF | 0.132 ± 0.0026 | 0.335 ± 0.075 | 0.357 ± 0.058 | 0.559 ± 0.032 | 0.694 ± 0.052 | 0.0889 ± 0.025 | 0.0908 ± 0.012 | 0.136 ± 0.015
